Results on 2 substances are retold here after paper doi:10.1101/2022.09.07.507039.

By stoichiometry N is commonly meant a count of units in the complex or per binding partner.

For assay [1], the target named is native Gli123 protein (Mycoplasma mobile). Put plainly: SEC.
The target is the same in assay [2]. Put plainly: negative-staining EM with single-particle analysis.
For assay [3], the target named is recombinant Gli123 (Mycoplasma mobile). Description: SEC-SAXS. A general note: SEC sorts molecules by how far they enter the pores of the column.

Turning to native Gli123 protein (natural protein), the stoichiometry N in assay [1] and in assay [2] was 2 in each case.

Regarding recombinant Gli123 (natural protein), in assay [3], the stoichiometry N is 2.
